Results published in US20250223614A1.

Experiments:
[1] = biological target: Cfa C-intein fused to the N-terminus of the C-terminal fragment of adenosine base editor ABE8.5 (starting at Cas9 position 310); experiment: cell-based or functional assay
[2] = biological target: Gp41.1 C-intein fused to the N-terminus of the C-terminal fragment of adenosine base editor ABE8.5 (starting at Cas9 position 310); experiment: cell-based or functional assay

| A7G Edit % (Exp. 1); average (N = 4) percent A > G conversion [1] [%] | A7G Edit % (Exp. 2); average (N = 4) percent A > G conversion [1] [%] | A7G Edit; average percent A > G conversion measured in Exps. 1-3 [1] [%] | A7G Edit; percent A > G conversion (Exp. 3) [1] [%] | A7G Edit % (Exp. 1); average (N = 4) percent A > G conversion [2] [%] | A7G Edit % (Exp. 2); average (N = 4) percent A > G conversion [2] [%] | A7G Edit; average percent A > G conversion (2 experiments only) [2] [%] | Substance |
| --- | --- | --- | --- | --- | --- | --- | --- |
| 48.2 | 74.7 | 64.3 | 70 |  |  |  | N-terminal fragment of adenosine base editor ABE8.5 (ending at Cas9 position 309) fused at its C-terminus to Cfa N-intein |
|  |  |  |  | 54.9 | 72.5 | 63.7 | N-terminal fragment of adenosine base editor ABE8.5 (ending at Cas9 position 309) fused at its C-terminus to the Gp41.1-SC N-intein |
